{
  "source": "patent US5827666A",
  "about": "“Synthetic multiple tandem repeat mucin and mucin-like peptides, and uses thereof” (priority 1994, dated 1998)",
  "assay": "circular dichroism at 25-90° C.",
  "type": "physicochemical",
  "details": "0.01M phosphate buffer pH 7.2",
  "data": [
    {"sequence": "TITPPQAMGPNLVLPDQKPPSRQSQTGSKVATQRPQTNESAPRSVAPTTVGPKRIGTGDR (TITPPQAMGPNLVLPDQKPPSRQSQTGSKVATQRPQTNESAPRSVAPTTVGPKRIGTGDR) [PRN60, 60 amino acid proline-rich domain of feline leukemia virus gp-70]", "values": [
      {"measurement": "decrease of CD intensity at 198 nm at 90° C. as compared to 25° C.", "value": 29, "unit": "%"}
    ]}
  ]
}
